Experimental data reported in patent US20120258482A1, “PCNA […]” (INDIANA UNIVERSITY RESEARCH AND TECHNOLOGY CORPORATION, priority 2009, published 2012).

System: purified recombinant PCNA
Assay: Vapor diffusion assay of anti-Flag immunoprecipitates with purified recombinant PCNA
Format: biochemical, human
Conditions: anti-Flag immunoprecipitate from SK-Br-3 cells, 2 μg 6× His-PCNA
Description: Vapor diffusion assay. The assay was performed basically as previously described (Murray, E. D., Jr. & Clarke, S. J Biol Chem 259, 10722-10732 (1984). MCF7 breast cancer cell extracts were assayed 1-2 h in the presence of [^3H-methyl]-SAM (NEN). Following incubation, extracts were equilibrated with 100 mM NaOH with 2% SDS and spotted onto filter paper folded into an accordion pleat and placed into the neck of a vial above scintillation fluid. ^3H-methanol present in the scintillation fluid was measured the following day (See FIG. 1).
Protein expression and purification. HiTrap phenyl Sepharose HP and Superdex S200 columns were purchased from GE Biosciences. Chromatography was performed using a Biologic DuoFlow (BioRad). […] The CBP tag lacks both aspartic and glutamic acids. […] (Podust et al., Biochemistry 34, 8869-8875 (1995). A eukaryotic expression vector expressing a Flag-Arm1 fusion was transfected into and transiently expressed in SK-Br-3 cells with Fugene 6 (Roche). Anti-Flag immunoprecipitations were performed with Anti-Flag M2 Affintiy Gel (Sigma) and detected by Western analysis using anti-DDK antibodies (Origene). PIP-affinity beads were generated by covalently coupling synthetic p21 PIP peptide (Anaspec) to CH Sepharose (GE Biosciences). […]

B1: Flag-Arm1: Flag-tagged C6orf211 protein fusion, PCNA-dependent carboxyl methyltransferase (SEQ ID NO: 33) (protein, listed as Homo sapiens)
chain: MAVVPASLSGQDVGSFAYLTIKDRIPQILTKVIDTLHRHKSEFFEKHGEEGVEAEKKAISLLSKLRNELQTDKPFIPLVEKFVDTDIWNQYLEYQQSLLNESDGKSRWFYSPWLLVECYMYRRIHEAIIQSPPIDYFDVFKESKEQNFYGSQESIIALCTHLQQLIRTIEDLDENQLKDEFFKLLQISLWGNKCDLSLSGGESSSQNTNVLNSLEDLKPFILLNDMEHLWSLLSNCKKTREKASATRVYIVLDNSGFELVTDLILADFLLSSELATEVHFYGKTIPWFVSDTTIHDFNWLIEQVKHSNHKWMSKCGADWEEYIKMGKWVYHNHIFWTLPHEYCAMPQVAPDLYAELQKAHLILFKGDLNYRKLTGDRKWEFSVPFHQALNGFHPAPLCTIRTLKAEIQVGLQPGQGEQLLASEPSWWTTGKYGIFQYDGPL
modifications: Flag tag
- PCNA-dependent carboxyl methyltransferase activity: Significant levels
